From the MegaScale stability set (Tsuboyama et al. 2023)

B1: HEEH_KT_rd6_0007 (parent)
chain: SIEEEIKKAEEAKEKGKTFIHGDFVATTEELLDELLKRLRKKL

Variants of: B1
Assay: folding stability dG (cDNA display proteolysis); higher = more stable
Conditions: PBS, room temperature

Folding stability dG [kcal/mol]: each site, then its substitutions
K15: Y 1.13, P 0.667, M 1.37, A 1.33, S 1.19, I 0.793, L 1.4, D 0.807, F 1.15, G 1.08, R 1.19, V 0.735, E 0.916, N 1.32, W 1.07, Q 1.4, T 1.29, H 1.3
F19: Y 1.49, H 0.937, K 0.811, S 0.618, A 0.757, M 0.895, P 0.637, D 0.713, L 0.751, W 0.964, I 0.902, G 0.793, E 0.58, N 0.745, Q 0.715, R 0.752, V 0.861, T 0.77
T18: F 1.3, G 1.23, D 0.988, K 1.1, Y 1.37, H 1.16, L 1.07, M 1.32, W 1.76, V 1.48, P 1.32, Q 1.28, N 1.07, S 1.21, A 1.3, I 1.67, R 1.09, E 1.12
F24: A 0.492, T 0.846, Y 1.02, H 0.746, V 0.78, Q 0.726, W 1.22, L 0.965, R -0.367, N 0.509, M 0.889, P 0.489, C 1.49, K 0.243, E 0.854, S 0.627, I 1.03, G 0.708, D 0.649
V25: N 0.974, R 0.704, D 0.749, W 1.39, S 0.912, K 0.938, Y 1.23, G 0.704, L 1.11, M 1.18, T 0.907, P 0.68, Q 1.07, A 1.1, H 1.28, F 1.31, I 1.41, C 1.94, E 1.05
A12: Q 0.606, D 0.737, L 0.688, W 0.691, Y 0.791, P 0.459, I 0.771, T 0.618, H 0.753, G 0.482, N 0.603, S 0.754, R 0.639, M 0.749, V 0.505, C 1.78, K 0.526, F 0.689, E 0.703
E10: Y 1, M 1.44, K 1.04, N 0.992, F 1.07, I 1.32, V 1.17, Q 1.2, W 1.06, S 0.844, A 0.805, H 0.9, T 1.06, G 0.706, L 1.58, R 1.02, D 0.699, C 1.49, P 0.607
E11: A 1.16, V 0.953, Y 1.17, K 0.817, R 0.941, I 1.03, T 1.04, N 0.868, C 1.5, Q 1.06, H 0.939, L 1.1, M 1.05, F 0.946, W 1.2, P 0.576, S 0.928, D 1.27, G 0.705
K13: W 1.09, Y 1.07, L 1.16, F 0.912, G 0.684, C 1.82, P 0.543, I 0.852, H 0.747, M 1.01, T 0.5, R 1.3, Q 0.869, D 0.676, S 0.704, A 0.86, V 0.79, N 0.575
